Laboratory results: article PMC8203779, “Distinct mechanisms of the human mitoribosome recycling and antibiotic resistance” (Nature Communications, 2021)

Molecular target: mitoribosomal protein uL12m (39S subunit, L10-L12 stalk) (human (endogenous in HEK293S GnTI), UniProt P52815 37-198)
Experiment: cryo-EM structure; model PoTC (150 nM 55S mitoribosomes + 50 uM puromycin, 10 min 37 °C) with 15 uM RRFmt (5 min 37 °C), then 5 uM EF-G2mt + 200 uM GMPPCP (5 s, 30 s, 2 min, 37 °C), HEPES polymix buffer pH 7.5; single-particle classes: Class I 55S•RRFmt, Class II 55S•RRFmt•EF-G2mt•GMPPCP, Class III 39S•RRFmt•EF-G2mt•GMPPCP
Settings: both partners purified

binding result: binds
B1: human EF-G2mt (recycling-specific mitochondrial homolog of elongation factor G) (natural protein)
chain: MLTNLRIFAMSHQTIPSVYINNICCYKIRASLKRLKPHVPLGRNCSSLPGLIGNDIKSLHSIINPPIAKIRNIGIMAHIDAGKTTTTERILYYSGYTRSLGDVDDGDTVTDFMAQERERGITIQSAAVTFDWKGYRVNLIDTPGHVDFTLEVERCLRVLDGAVAVFDASAGVEAQTLTVWRQADKHNIPRICFLNKMDKTGASFKYAVESIREKLKAKPLLLQLPIGEAKTFKGVVDVVMKEKLLWNCNSNDGKDFERKPLLEMNDPELLKETTEARNALIEQVADLDDEFADLVLEEFSENFDLLPAEKLQTAIHRVTLAQTAVPVLCGSALKNKGIQPLLDAVTMYLPSPEERNYEFLQWYKDDLCALAFKVLHDKQRGPLVFMRIYSGTIKPQLAIHNINGNCTERISRLLLPFADQHVEIPSLTAGNIALTVGLKHTATGDTIVSSKSSALAAARRAEREGEKKHRQNNEAERLLLAGVEIPEPVFFCTIEPPSLSKQPDLEHALKCLQREDPSLKVRLDPDSGQTVLCGMGELHIEIIHDRIKREYGLETYLGPLQVAYRETILNSVRATDTLDRTLGDKRHLVTVEVEARPIETSSVMPVIEFEYAESINEGLLKVSQEAIENGIHSACLQGPLLGSPIQDVAITLHSLTIHPGTSTTMISACVSRCVQKALKKADKQVLEPLMNLEVTVARDYLSPVLADLAQRRGNIQEIQTRQDNKVVIGFVPLAEIMGYSTVLRTLTSGSATFALELSTYQAMNPQDQNTLLNRRSGLT
notes: mitochondrial elongation factor G2 (EF-G2mt), human, 87 kD; contact residues up to Leu778 are printed; Cloned into pGEX6.1; also called EF-G2mt-GMPPCP; source: Rossetta (pLysS + RARE) cells, purified (GSTrap HP, GST cleaved with 3C protease, HiTrap Q HP)
